According to the supplement of paper PMC10126150:
± gives the standard deviation of the averaged measurements.

Test system: ATP
Experiment: switch fluorescence ratio, 500 uM ATP over buffer (Cy3 cluster intensity, sum of 5 cycles each) (fold (ratio)); higher = stronger signal-on switching upon ATP binding; sequences stand for … in TCGTCGGCAGCGTCAGATGTGTATAAGAGACAGTTTTTTTTTTTTTTTTTTTTTTTTT…TC
Conditions: aptamer strand: ATP DNA aptamer (quencher-CACCTGGGGGAGTATTGCGGAGGAAGG + anchor), 100 nM annealed; ATP concentration: 500 uM
Method in brief: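 Clusters with intensities outside 100-1000 RFU were excluded. The remaining Cy3-labelled switching-strand clusters on a modified Illumina MiSeq flow-cell had been annealed to 100 nM quencher-labelled ATP aptamer and imaged in selection buffer, then after 15 min with 500 uM ATP at 22 °C, for five cycles separated by NaOH stripping and re-annealing. The fluorescence ratio, averaged per switch-domain sequence, is each cluster's summed target-cycle Cy3 intensity over its summed buffer-cycle Cy3 intensity.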
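Note: ATP exposure 15 min at 22 °C before imaging.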

Sequence	switch fluorescence ratio
TCGGGAAGGG	0.991 ± 0.014
TTCGCTCTTT	1.06 ± 0.025
GTGTCCCTC	1.01 ± 0.04
TAAACTCCA	1.05 ± 0.042
CAGGGCGC	1.02 ± 0.088
ATGTTAGATT	0.996 ± 0.029
GGGGCTGGGG	1.01 ± 0.034
TTAGTTAAT	1.02 ± 0.023
ATTAGGGTGG	0.992 ± 0.018
GGTGATGGGA	0.976 ± 0.021
GCTGGGCGGA	1.04 ± 0.039
AGAGTGGAGG	1 ± 0.041
AATTAAGGAT	0.975 ± 0.032
TCTAAGCTGG	0.988 ± 0.014
GCTCTTTGAA	1.01 ± 0.012
AAATGCTACT	1.02 ± 0.028
TCCATCGGGA	1.14 ± 0.14
AAAAGGTTGT	0.999 ± 0.038
AGATAGGGGT	1.021 ± 0.008
GTTTTAAGGG	0.99 ± 0.016
AAGACAGTGC	0.9932 ± 0.0059
TGCGGTCACT	0.9964 ± 0.0056
AAGGATGGGG	0.98 ± 0.022
TATAAGTTTG	0.999 ± 0.015
GGGTGTAAGG	0.998 ± 0.022

Sequence	switch fluorescence ratio
GGATGCTCGG	0.966 ± 0.015
CATTCCGGGA	1.63 ± 0.72
CGGCGAGATA	1.01 ± 0.029
GGTTAAGTGG	1.01 ± 0.015
GCATATGTCG	1.097 ± 0.0042
TTGTTTTGTT	1.04 ± 0.1
TTGATATAAT	0.981 ± 0.014
AGGTTGTTTT	0.977 ± 0.028
AAGTTTTTAT	0.971 ± 0.019
AATTGCGGCC	0.979 ± 0.045
AGTTAGGGCG	1.04 ± 0.058
AAGTCGGTCT	1.05 ± 0.1
AGATAGGTGT	1.079 ± 0.003
GGGTTGTAGT	1.02 ± 0.032
CTTGTAGGGA	0.9956 ± 0.0053
GCGATTATAT	0.969 ± 0.049
AATAATCAGT	1.05 ± 0.033
TCGGTGGCGT	1.02 ± 0.048
AAGTGGATAT	0.999 ± 0.024
GGCTCACTAG	1.01 ± 0.05
AACATGTTGG	0.991 ± 0.047
GGATCGGATT	0.979 ± 0.023
TAGGTAAGGG	0.99 ± 0.026
TAGCCTATTT	0.975 ± 0.038
CAGATAGACG	1.04 ± 0.036

Sequence	switch fluorescence ratio
GTGTTTAGGG	0.999 ± 0.021
GGGGCGAGTC	1.01 ± 0.1
TTTGAGATAG	1.02 ± 0.012
GGTTTTTGTA	0.995 ± 0.025
TAAAAGGACT	1.03 ± 0.034
ATTTGTAAGA	0.9927 ± 0.0045
TTGTGTCTTT	0.986 ± 0.017
TTTCAGAGAA	1.04 ± 0.049
ATATTCGGAA	0.99369 ± 0.00071
GTTTGTTAAT	1.007 ± 0.0044
TGGGAGAGGT	0.996 ± 0.02
GAAGTGAGCA	1.01 ± 0.044
ACAGGGCCGT	1.03 ± 0.033
TTCAATTTAG	0.9954 ± 0.0042
TCGTTGAGCA	0.994 ± 0.018
TTGTGGCCAT	0.974 ± 0.022
ATTTTTGCGT	1.01 ± 0.041
TTGGGTTTTG	0.994 ± 0.031
TTCGGCGCCA	1.03 ± 0.013
GTTTTAGCCA	0.97 ± 0.013
TTTAAGGCTC	0.994 ± 0.032
GTAGCTTTGG	1.04 ± 0.027
AATTTGGCCC	1.01 ± 0.031
TTACACGAGA	1.054 ± 0.0057
TTTTCCAAGA	1.09 ± 0.1

Sequence	switch fluorescence ratio
ATGAGATAGT	1.002 ± 0.0049
AGTAGCGGTC	1.02 ± 0.057
CTTGTATTAG	1.01 ± 0.012
TTAGGCTGGG	1.02 ± 0.013
ACATTGAAAA	0.996 ± 0.036
CATTGGCCGG	1.095 ± 0.0025
AATTGATGTT	0.972 ± 0.025
ACATCAGCGG	0.958 ± 0.031
ATAATGAGGT	1.01 ± 0.042
GGAGGGATAG	1.26 ± 0.029
AATGGAGTGG	0.997 ± 0.028
CCATTAAAAG	1 ± 0.052
TATAATATCG	0.961 ± 0.015
AATTTGTTAG	0.985 ± 0.018
TGGGGATCTC	1.01 ± 0.024
TGTATGGTTT	0.971 ± 0.048
TGACGGGGAT	1.25 ± 0.33
AAGTTACTAG	1.07 ± 0.014
TTCGTGGGGC	1.18 ± 0.21
TCAGAAGGCG	0.981 ± 0.015
TCCGTGGGGG	1.09 ± 0.14
CGCTTATATC	2.8 ± 0.32
GGGTTATGCG	1.04 ± 0.027
TTTGCCTTGC	1.11 ± 0.067
TCTAAGACGT	0.957 ± 0.018
